{"source": "paper PMC7112951", "about": "“Structures of the ATP-fueled ClpXP proteolytic machine bound to protein substrate” (eLife, 2020)", "proteins": {"B1": {"name": "one ClpX^∆N E185Q subunit (unit) of the single-chain pseudohexamer (domain or fragment)", "chain": "not shown", "notes": "ClpX, E. coli K12, residues 62-424 (ClpX^∆N); In the sample the six units are joined on one chain by six-residue linkers; written alone for the contacts between neighbouring units; also called ClpX^∆N subunit; subunits A-F; source: E. coli strain ER2566, purified, as part of the single-chain pseudohexamer m1"}}, "target": "the molecule itself", "test": "cryo-EM structure; ClpX^∆N pseudohexamer 4 µM and ClpP14 1.8 µM (2 µM in the results) in EM buffer (20 mM HEPES, pH 7.5, 100 mM KCl, 25 mM MgCl2, 5 mM ATPγS), 5 min at 25°C before vitrification; doubly capped complexes analysed"}
{"protein": "B1", "values": [{"measurement": "stoichiometry N", "value": 6}]}
